According to patent US20250116658:

Experiments:
[1] = tested on: GzmB protease cleavable linker IEFDSG, synthetic peptide fluorogenic probe
[2] = tested on: MMP9 protease cleavable linker PLGLAG, synthetic peptide fluorogenic probe
[3] = tested on: Thrb protease cleavable linker LVPRGSG, synthetic peptide fluorogenic probe
[4] = tested on: Thrb substrate peptide (candidate 1) LVSPRSG, fluorogenic peptide

In the case of Thrombin (Thrb) protease, the “cleavage of synthetic peptide fluorogenic probe (non-corresponding pair: not cleaved)” value (“cleavage … (non-corresponding pair: not cleaved)” below) [1] is reported as “specific cleavage was shown by only the corresponding proteases”, the “cleavage … (non-corresponding pair: not cleaved)” value [2] is reported as “specific cleavage was shown by only the corresponding proteases” and the “cleavage of synthetic peptide fluorogenic probe (corresponding pair: cleaved)” value (“cleavage … (corresponding pair: cleaved)” below) [3] is reported as “specific cleavage was shown by only the corresponding proteases”. The “cleavage activity in fluorogenic assay” value [4] was “showed higher cleavage activity than the original Thrb cleavable sequence design (LVPRGSG (SEQ ID NO: 23))”.

For matrix metallopeptidase 9 (MMP9), the “cleavage … (non-corresponding pair: not cleaved)” value [1] was “specific cleavage was shown by only the corresponding proteases”, the “cleavage … (corresponding pair: cleaved)” value [2] was “specific cleavage was shown by only the corresponding proteases” and the “cleavage … (non-corresponding pair: not cleaved)” value [3] was “specific cleavage was shown by only the corresponding proteases”.

For Granzyme B (GzmB) protease, the “cleavage … (corresponding pair: cleaved)” value [1] was “specific cleavage was shown by only the corresponding proteases”, the “cleavage … (non-corresponding pair: not cleaved)” value [2] was “specific cleavage was shown by only the corresponding proteases” and the “cleavage … (non-corresponding pair: not cleaved)” value [3] was “specific cleavage was shown by only the corresponding proteases”.
